The values that follow come from patent US20220226454A1 (KEYSTONE BIO, published 2022).

Experiment [1] addresses whole bacterial cells of P. gingivalis (Porphyromonas gingivalis).
Experiment [2] concerns the target T1, recombinant GST-gingipain rGP-1 fusion protein.
T1 construct: also called GST-Gp; GST-Gingipain recombinant protein
Description: ELISA, wells coated with rGP-1 and probed with varying concentrations of KB001. In general terms: An ELISA detects its analyte on a solid surface through an enzyme-linked reagent.

B1: KB-001 mouse monoclonal antibody (antibody, V domains shown)
VH: EVQLKQSGPGLVAPSQSLSITCTVSGFSLSIYSVHWVRQPPGKGLEWLGMIWGGGSSDYNSALKSRLSISKDNSKSQVFLKMNSLQTDDTAMYYCARNGNFYAMDYWGQGTSVTVSS
VL: QIVLTQSPAIMSASLGERVTMTCTASSSVSSSFLHWYQQKPGSSPQLWIYSTSNLASGVPARFSGSGSGTSYSLTISSMEAEDAATYYCHQYHHSPYIYTFGGGTKLEIKR
notes: also called Pg/gingipain antibody
Broadly, the Kd is the constant that tells how readily two partners part at equilibrium. A high value points to lower affinity. As for B1, binding in experiment [1] was put at a Kd of 11.4 nM. The binding result in experiment [2] is given as “binds”.
